# Assay: soluble on expression in E. coli; label from the status in PepcDB or PDB records
row,Sequence,soluble on expression in E. coli
1,GPGSMGYRLLRDNVFKASCAKDSDELRARREPTMLYKEDQLVAPASGTERRYTLVLDLDETVIYAREGPLYARAYLKELLSFIRKNFEVIVWTAGEREYAECILEEINIRNTVRHLIHRHKTWFSFDDYTKDLTKLGRNLDYVIIIENSPDCVRTNPQNGIIVDDFRVSQTPPMEEAEAAWEGDGNNRERKAGSRSDSKTRRQVTDRTLLLLREVLKAMVESGETVPDFLAKCPLLTQRRVIGSDGSQIQTYHLGTRRKRGIPQLCASSPKRRRVTKESAPGATCTS,soluble
2,GPGSMHTKVLAPLAGNRIQAAHKFPQVRLQPTLHRLMTRRRQCNLPLRLFHPSSVDFAKHELEAGRIVEVRRDDNSLVALGFYEPHLERVDVFDMTANLAAMLPAISEDFFMARVHEAWERRRRILPQTQSNTYRVVNGYADSLPSLFVDVFSESFVRVVATSFGAERLVTPLLDFLSRRGAEDVLLDTPTLGDAARVSIVTPTISLPQMYVESGVSHLWLRPDMRMPSTDNLFLINPAHRRTRRMMRDVGKGKRVLTIYDRSGSAAMNAVMTAKHVTVVHREETSLEWARTNLICNHSASVFKTCETVCCDPAELRVRHQQDVVYVECHPKFLSTSNQWAELVRSLANNKVIGVGTMLIVAQEEAPLGVHDLLPRRKVFYEGDESKANQDCPMKRRPLADVLRNALEKCHLRLKFLRAFSVACDHPLLPEAESASFSLVYLVEGPALEQVFRVSASSHRTECTDEAA,not soluble
3,GPGSMIFGSEPPLYLKPVGRRGLRRHEADVLQHYPGYSHPVVQLRGSEGYIGDSHRLHPRLTAAEELRHERELGAERRQRVVEVRRRRHCEREANLAQRREDEFQREQRHKAQLAGLCIRNEPGDGRDTITQQYRTEDARRHYEYKHELEKHRYFARQQRLREKTHPHGYNILTGEALPSTVVPPKPSIPSDTQLFAVQNGD,not soluble
4,GPGSMIYSGEIENGQMHGRGCLQYPNKEKYDGDWVFGKRHGTGVYVYADGSRYEGEWVDDKVHGNGACYYTSGNVYTGEWSMGRINGRGVLEYHDGDRYEGEWKDGRMHGKGTYCYSNGDKYEGEWKEDKRHGKGVVVYAAPDGCVSEKYDGEWNEGRMQGWGKYFYADGGVYEGEWVDGRMHGRGTYVFPNGNKYEGEWVEDRKDGYGILLYTNGERYEGYWHLDKAHGKGTLTFLQGDRYVGEWHYGKKHGHGVLSYSNGDTYDGEWRDDDAWGYGVLQYANGCRYEGEWAEDRRHGKGLLVLPDGSSYEGSFAHGKKDGPGKIILKDGSMYIGTWKDGVIVGQGEFRLSENCDLSNPDY,soluble
5,GPGSMKKTVEDRSLEFLIRRRNDAELPPLASLSCKHLKQHHWRDAFDDEQAALREQLWAVKTQLDVIPAETYTATRNKLFPLAASGEQRNFSNRAGHKLLESMESTGVWMELSKLLRGKSTKRPRDFAFADVCGGPGAFSQALFQAGRKRGWRHLHGYGMTLAGVSGLDWYAHLLKSPQFTCTYGLDGTGDIFKLSNIDCLASITKAAPMFLVVADGGFNVDFSVTNYQETISSRIMYGQWLAALKLLRKGGCFVLKLFDTFSPLSRAVLYLSCCMYRRVHVAKPRHSRVVNSERYLVCVDFLGYPSEGWSRYLDSFYEVGFVDNEHVPQLIPREWCLQDAVFMADVRDMNTAVATNQVIALQMILDAAPAMTEELKAKTIEKKPAAGSDDGRTPPPDEGGDGE,not soluble
6,GPGSMLEEVLKCYEEMKDPAAHQLAEAALPKLMEALGEESENSVMEVMLRCIGRCVSVHPAIMSPTNTALVCDKVMAALEVVVKRRNECLQKKATENDEDELDALEVEDEEVHLTISSMCDLIGTLLAASKEVFAAPFLEKAFPVLGEWLQASTDDFYMTRAAGILSDFVTHAPQSIVPSLPQICASSLTIASSSSDDGLLQSDFYLMNVIVQLLGSHATTNMGVDGGEYAVHVQQVAEKYFSSNLVNQEEYTHCTCNVISLYVSLLNFYGTTVLQQAATSMLTVVGKALPAKDDEIEARRIHDVVLGWVTNNHPVLQALPGSTAGFLTCVKAASPNCLSEQAKQYLASM,soluble
7,GPGSMLKCSLCYLASKVTAGNAKNQAGHPRRRAKLFHVVPGTPVTPFEKLKEQRRRFGQDRHSRLPEYRPGNNVRMDPNTYTLYATKKGVMTIRESRINPKYKWLDVEPDIQKVYRSRELRRALQEREMASMAVGENSNYRVELDLLLEPDWRERVMHVPKATERFKDPNLFTRGVVNELSPLDRYSYT,not soluble
8,GPGSMLPQLLTENLCSLVEAEDRYAFSILWEFDENLNVVRDWFGKTIIRSRGALYYGDAQRMIDNPADTSDIAVSLRELMRLSKHFKAQREEDGALFLASQEFKFKVDNEHVNPTDMQVYQTFEANSMIEEWMLYANAAVATKVYESYPQWTLLRRHEPPAEGAFDTLNDALYSKLRVRLDDTTSLTLNKSLDKCEDPQDPYFNKLIRILTTRCLRQAQYFSSGG,not soluble
9,GPGSMLPTVPCFGSQWCIESVMDLSGLVPTSKELTEGQREHIRDLQYEIDEIWNRRGDYKIDSSAWEQMPLFMENITEEDLQRNADCAALASIAYDDVPPEEVAESRKQHGNRAIQLALDPKQVNKENLARATVHCYTEGLAAKCKDPVLNSQLYANRSLAQYIIHNYGHGLEDAQRAIILDPDYYKAYYRAARCAERIGKYDLALDLLAKGRRTNPAPVGRALEDFVDIERVCREGKERAESKKKKENLSTRVKAAQTSSTLRCVTSSGVRCSPRAEVSSEQMGVYGHHEPYFDSEGLLHVPILFMYDEYQQTDFMQDVSCDVCVGELLDELMPFPWDDRGRYQRIDDILVVYKIDGGVKDPKYYEVDLSLPLMEVFRSESYQMPALLPVLHIICKHSDMLTEWDVQMLR,soluble
10,GPGSMLQSLVNSIVFVPPRDPNSLQRVQLLQRKRHMSFTSKKSGERISYFHFDPKGDLVTKDNPERVVRSSMVLLFHHGNAEDLGSAFSYAQSMACVFGVAVVVYDYCGYGFSGFPDAAKPAEVTEKSVYSDADHMYAHLLSLGYPAHRIIIVGRSVGGGPACYLAEKHHKKVGGLVLISTFTSCLRVVSSCCLPYLCCCVDLFPNYRRIEHIMECPVLVMHGTHDNVVPHHCSSELLEDIVARRNNALQRLLKKREGARANQAKRSSVLGAASTGPTNTTTASATIIVADEALVTAQPPLDGETVSVFDLYRRAYDGLPEAVRRVAEGRLDVTAADASIGVFHRWFAGCGHNDIEAREGHAFSDMFDYFVRFSTAFSMEREALLLAKPVTGAAKASRDSLNRADSEVRE,not soluble
11,GPGSMLRRTLYALTRPRDSAAASRDKAHFDVCVIGGGPAGIAAALRAADYNKRVCVVEKARLGGNDLWDGALQSKTMWECSAIMAKMRGDAAMRLYGESLDRYLEIDEVKMRQSMEQVSRIREEQIQAALKASPNVELVLGRATFSSNHEIQCHSKRTKEFRSITADYFIVATGSKPRKHPYVAADGRLVMTSDHIMRAPLPKSLVIVGAGVIGCEFASIIGRLGKTKVSIIDKAPHILPREDPDIVRMIESGMDRAGIVVHHNSDLYDMQPWEETVEEAKARHPADPAPQSGVQYTVMDRTTRKLTTFQVERALISIGRVPDYSRLGIENTTLKTRGSQLHVNEFGQCVGTPHIFAVGDAATHMQLVSMGEAQAKLAVDYIYGTEPKVVPNLTETMSSVAFLTRAVASVGYNESQCREKGIAYIAARYSYEVVSRAVAAANTKGFVKIICADDPERRILGVRALGMNASTLVDIGALAIQNGQGVFDLAGRLTAYPAVSQAFQECLRSILDLSAQLHADPARGVKLTKWTPPDMSRGVAYKGKATAPGESSPRQSGWVIH,not soluble
12,GPGSMLVPGYGSHLLRFGSTWVYITRAEDPSKQKAAAANRVDRENDKLTLTFFTRRRAVVQQFMKHVQESWRANVRNTVHIYLSEGYGPRWHLLSERIRRPLSTLYLPADTKAVVEEARLFLRLKDTYAALGIPWRRGYLLEGPPGTGKTSFVMALAGELGLPVHILSLRSANMDDDALLSLTSSLPRRSILLIEDLENVLKTPPGAGRSALSSGASDTAAVAAAETSAASPASPYSTDIGGGPRSAMSLSALLNALDGVSSSEGRLLLITTNDTSRIPFAEVLLRPGRVDRRIRFQPLHVEQLREMEASFQQALQASPCSAVENPRLPSARPSAHEDDRSVACTPAQYQQRLLDAVYASLTSRPRAESK,not soluble
13,GPGSMMRCGNGSGPAAPSAASPRSHEGCLPHWMECSSASSSFVEDRVRCLVHPVGVTSLLPAPLQRILANVLRILQQERAQLKGQRPCRRHSRSLGTGVDAEVTECIVDAAQAPSLAAAADIFSAFVAAHPMDGLALLSSPVALVGAALAEVVTLGQVESCVIPMPELLSFLDAAISVGHPGAMHSVAICLREGTAGLQRDVTSSETWLRCAASSGYLPAMHELGETYERGAPASSKLPAGAAEDAADWGEAMQWYRRAAEAGYPPSQLNLGKLLLAASEHAQSAGSAAAPQVAHLFTEAKRWLHACAATGVEEAVRLVKRIEEQGAR,soluble
14,GPGSMNERLEDIALTLVGAGKGILAADESTATIGKRFESIGVECTEDNRRAYREMLFTAKEAMESAISGVILFDETLRQKASTGQMLTDLIRDAGAVPGIKVDTGAKPLAAFPQETITEGLDGLRERLKDYYTLGARFAKWRAVIAIDAQTLPTRGAISQNAQALARYAALCQEAGLVPIVEPEVLMDGPSRQHSITRCFEVTKVVLHTVFKELFEARVLFEGMILKPNMVIDGKDARIASVEEVAEKTVHVLKQTVPAAVPGIAFLSGGQTDEEATAHLSAMNALGALPWKLTFSYGRALQAAALKAWAGKNENIVVAQKAFCHRARMNHLAALGQWTKDQEKSCA,soluble
15,GPGSMNPATKDVASAEEESPVVCTAKQYIFDLHSYAWKESDCLIRIPRPHKGMGHGGMRVCYAVEDVDEEGAGTPMVAKMFRRNISNVVEKDYFNEGAAQCMCEEFANNFNRIHLTNIRKPNISFLQCYVVRIPRDSIPAASQRKRTGFFSYKTQDTGEVMFVMEPMLSGKFTKYNSNYGETYREDKKAALTSSEARRRTEIFEAAETFSHFTLVESGGSMLVCDLQGVNDFFTDPQIHTEDGKGLGMGNMGQEGIDKWIEKHECNDICRALGLQPLLGAVPSSTACAREENMYLGLRAQLQSQNPVRLRDLVPLTKPLEEMTEAERIEYALKVSRLTD,soluble
16,GPGSMNPSKVVQGTPNSVEWDPRNPPDTPFFTETTAVERSRIPTEYIRRMEEATRLYAMHREGRHALHTACQIASWTVATQCCWLCVGVWLTVRGYRHANPAHSFVSGMTSNKVFCRVFTPIPVLGLTMMGVTAAQLPRDVKVLITAREGRMEEENCMKSAFDQCMAALAEGRLAMGKEGILTA,not soluble
17,GPGSMNRLFGRKKDTQKPTLEDASVKIGARCDAVDARVSKIDAELAKLKECIQRTTGATQQRHKQRAIQLLQQKRLYQNQQDVLMQQQFNIDQLQFTTESVKDAKLQVDAMKDATKTLKREFKKMSVADVEKLQDELLNLYEDAQYVQEAMGRSYDVPDSIDEDEMLGELEALAMQSGNEADSSYLSDALAMPSGRLPDLMSNTQQQQETETPDPYKLETQLGL,not soluble
18,GPGSMNYEGHLKGHRGWVTSLACPQQAGSYIKVVSTSRDGTAISWKANPDRHSVDSDYGLPNHRLEGHTGFVSCVSLAHATDYALTASWDRSIRMWDLRNGQCQRKFLKHTKDVLAVAFSPDDRLIVSAGRDNVIRVWNVAGECMHEFLRDGHEDWVSSICFSPSLEHPIVVSGSWDNTIKVWNVNGGKCERTLKGHSNYVSTVTVSPDGSLCASGGKDGAALLWDLSTGEQLFKINVESPINQIAFSPNRFWMCVATERSLSVYDLESKAVIAELTPDGAKPSECISIAWSADGNTLYSGHKDNLIRVWSISDAE,soluble
19,GPGSMPNPYTGNYEAARFVEYYASAQMLRDSVHRLHTVSIQRHMDALRRAESAHQKHTCPAAPIRSRQQIEEHANRMVYQEMLRRQKNMTKLAWDVYKPVPPKRLSSEELRSLVKRMYEQQMQNMTERKKEARQRQVVLSDEVLAETRRGRRMLRQRDIHRSLESGWRTPSSRAKYNDGKLLLVSGGNVKSTSKERPPDLGYLARLAKPLRPTERVNKC,not soluble
